Test results taken from US20240093191A1, “COMPOSITIONS AND METHODS FOR TREATING DISEASE ASSOCIATED WITH DUX4 OVEREXPRESSION” (RESEARCH INSTITUTE AT NATIONWIDE CHILDREN'S HOSPITAL, priority 2021, published 2024).

Tested on: DUX4 mRNA
Experiment: QPCR (SYBR green) of DUX4 mRNA in co-transfected HEK293 cells
Type: cell-based, human
Conditions: 3 to 1 ratio with DUX4 construct, normalized to egfp, relative to milacZ
Description: H1.mir-675 construct was transfected in a 3 to 1 ratio with DUX4 construct in HEK293 cells, and collected RNA extracts 24 and 48h after transfection. Total RNA was prepared using the miRVANA isolation kit. DUX4 and egfp (used as the reference gene) mRNA levels were determined using the SYBR green master mix as described in materials and methods. All values were normalized to egfp, and were reported relative to milacZ treated samples. At 24 and 48h after transfection, DUX4 levels decreased by an average of 37±2% (P<0.0001, ANOVA, N=3) and 51±2% (P<0.0001, ANOVA, N=3), respectively. Results were reported as the average relative DUX4 expression±SEM of three replicates. […] When compared to the milacZ sample, mir-675-5p overexpressed levels were ˜2000-fold higher (P<0.0001, ANOVA, N=3). Results were reported as the average relative mir-675-5p expression (2^−ΔCq)±SEM of three replicates.

B1: H1.mir-675: commercially available H1 promoter mir-675 expression plasmid (SBI Biosciences) (nucleic acid)
DNA: GAACGCTGACGTCATCAACCCGCTCCAAGGAATCGCGGGCCCAGTGTCACTAGGCGGGAACACCCAGCGCGCGTGCGCCCTGGCAGGAAGATGGCTGTGAGGGACAGGGGAGTGGCGCCCTGCAATATTTGCATGTCGCTATGTGTTCTGGGAAATCACCATAAACGTGAAATGTCTTTGGATTTGGGAATCTTATAAGTTCTGTATGAGACCACCCCCCAGGGTCTGGTGCGGAGAGGGCCCACAGTGGACTTGGTGACGCTGTATGCCCTCACCGCTCAGCCCCTGGGGAATTCTTCGATTCTGCTTTTTT
decrease of DUX4 mRNA levels (24 h): 37±2%
decrease of DUX4 mRNA levels (48 h): 51±2%
